Laboratory results taken from patent US20190328910A1 (University of California, published 2019).
*: point of attachment. Benzoyl(4-F) = O=C(c1ccc(F)cc1)*

How the values were obtained:
αvβ6 integrin (purified) [1] = molecular target: T1, αvβ6 integrin (purified) (UniProt P06756 31-992; P18564 22-707); assay: ELISA, αvβ6 integrin
T1 construct: Purified integrin captured on plate by anti-αv antibody P2W7; also called purified integrin

αvβ1 integrin (purified) = αvβ1 integrin (purified) (UniProt P06756 31-992; P05556 21-728); assay: competitive binding ELISA, purified integrin; competitor biotinylated natural ligand
Protocol: (§1) Anti-αᵥ capture antibody P2W7 (5 μg/mL, Novus Biologicals) was coated onto Nunc MaxiSorp 96-well plates, followed by blocking with BSA overnight at 4° C. All wells were washed 3 times with PBS, followed by plating of purified integrin (3 μg/mL) and incubating at room temperature in a humid chamber for 1 hour. Peptide solutions, titrated (1 μM-1 pM for integrin and 100 μM-100 pM for αᵥβ₃ integrin) and mixed with biotinylated natural ligand, were added to the integrin-coated wells in triplicate. After incubating for an hour at room temperature, the plate was washed 3 times with wash buffer. Captured biotinylated natural ligand was detected with ExtrAvidin-HRP and developed with TMB substrate. Half-maximal inhibitory concentration (IC₅₀) of peptides was determined fitting to sigmoidal dose-response model in GraphPad Prism 6.0 (FIG. 5A). Results are shown in FIG. 5B and below in Table 2.

αvβ3 integrin (purified) = αvβ3 integrin (purified) (UniProt P06756 31-992; P05106 27-718); assay: as above
Protocol: as §1

αvβ8 integrin (purified) = αvβ8 integrin (purified) (UniProt P06756 31-992; P26012 43-684); assay: as above
Protocol: as §1

αvβ6 integrin (purified) [2] = molecular target: T1, αvβ6 integrin (purified); assay: as above
Protocol: as §1

Chain of αvβ3 integrin (purified) (P06756 31-992, chain 1 of 2): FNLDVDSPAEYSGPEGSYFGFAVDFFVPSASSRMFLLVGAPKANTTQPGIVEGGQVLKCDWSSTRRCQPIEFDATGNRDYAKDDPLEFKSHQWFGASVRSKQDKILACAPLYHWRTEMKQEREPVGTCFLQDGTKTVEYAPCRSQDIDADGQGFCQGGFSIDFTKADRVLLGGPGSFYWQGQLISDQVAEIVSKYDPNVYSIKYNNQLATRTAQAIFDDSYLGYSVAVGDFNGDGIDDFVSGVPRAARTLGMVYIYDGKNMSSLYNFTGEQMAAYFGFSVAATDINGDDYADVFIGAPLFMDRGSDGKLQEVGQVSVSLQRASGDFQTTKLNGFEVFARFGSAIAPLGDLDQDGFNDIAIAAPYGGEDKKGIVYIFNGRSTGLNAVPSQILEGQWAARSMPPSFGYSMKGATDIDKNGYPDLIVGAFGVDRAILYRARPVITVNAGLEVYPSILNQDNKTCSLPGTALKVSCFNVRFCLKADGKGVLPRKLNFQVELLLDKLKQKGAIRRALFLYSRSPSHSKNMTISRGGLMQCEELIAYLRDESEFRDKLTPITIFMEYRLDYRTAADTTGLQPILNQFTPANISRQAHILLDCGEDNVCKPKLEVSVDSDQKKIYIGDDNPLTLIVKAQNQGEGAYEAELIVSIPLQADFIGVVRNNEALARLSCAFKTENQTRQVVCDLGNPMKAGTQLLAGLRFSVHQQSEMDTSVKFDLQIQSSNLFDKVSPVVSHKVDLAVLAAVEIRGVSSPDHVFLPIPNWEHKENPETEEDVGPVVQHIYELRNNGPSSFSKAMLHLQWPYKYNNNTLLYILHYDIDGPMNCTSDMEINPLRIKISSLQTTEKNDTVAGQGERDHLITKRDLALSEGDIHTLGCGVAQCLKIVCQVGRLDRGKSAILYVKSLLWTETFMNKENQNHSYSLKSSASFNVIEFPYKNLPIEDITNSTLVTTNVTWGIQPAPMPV
Chain of αvβ3 integrin (purified) (P05106 27-718, chain 2 of 2): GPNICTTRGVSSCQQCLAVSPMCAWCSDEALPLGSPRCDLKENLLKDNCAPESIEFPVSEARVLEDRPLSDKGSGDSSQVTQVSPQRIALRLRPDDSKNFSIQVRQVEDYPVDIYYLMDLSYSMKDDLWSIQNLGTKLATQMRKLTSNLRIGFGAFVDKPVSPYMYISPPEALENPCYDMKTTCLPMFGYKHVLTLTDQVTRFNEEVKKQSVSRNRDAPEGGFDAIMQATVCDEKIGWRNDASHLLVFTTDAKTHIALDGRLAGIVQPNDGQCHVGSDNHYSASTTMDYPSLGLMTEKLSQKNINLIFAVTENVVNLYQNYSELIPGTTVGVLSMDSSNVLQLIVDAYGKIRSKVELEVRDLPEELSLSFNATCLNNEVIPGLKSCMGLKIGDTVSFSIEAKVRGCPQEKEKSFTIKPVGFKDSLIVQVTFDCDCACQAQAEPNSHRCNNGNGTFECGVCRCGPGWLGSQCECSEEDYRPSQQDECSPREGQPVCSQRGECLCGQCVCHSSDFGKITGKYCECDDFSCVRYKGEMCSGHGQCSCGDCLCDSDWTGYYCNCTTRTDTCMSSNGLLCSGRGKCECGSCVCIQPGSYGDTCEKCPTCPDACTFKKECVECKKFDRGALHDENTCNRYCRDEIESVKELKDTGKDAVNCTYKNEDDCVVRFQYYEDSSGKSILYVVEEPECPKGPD
Chain of αvβ8 integrin (purified) (P06756 31-992, chain 1 of 2): as the sequence (P06756 31-992, chain 1 of 2) above
Chain of αvβ8 integrin (purified) (P26012 43-684, chain 2 of 2): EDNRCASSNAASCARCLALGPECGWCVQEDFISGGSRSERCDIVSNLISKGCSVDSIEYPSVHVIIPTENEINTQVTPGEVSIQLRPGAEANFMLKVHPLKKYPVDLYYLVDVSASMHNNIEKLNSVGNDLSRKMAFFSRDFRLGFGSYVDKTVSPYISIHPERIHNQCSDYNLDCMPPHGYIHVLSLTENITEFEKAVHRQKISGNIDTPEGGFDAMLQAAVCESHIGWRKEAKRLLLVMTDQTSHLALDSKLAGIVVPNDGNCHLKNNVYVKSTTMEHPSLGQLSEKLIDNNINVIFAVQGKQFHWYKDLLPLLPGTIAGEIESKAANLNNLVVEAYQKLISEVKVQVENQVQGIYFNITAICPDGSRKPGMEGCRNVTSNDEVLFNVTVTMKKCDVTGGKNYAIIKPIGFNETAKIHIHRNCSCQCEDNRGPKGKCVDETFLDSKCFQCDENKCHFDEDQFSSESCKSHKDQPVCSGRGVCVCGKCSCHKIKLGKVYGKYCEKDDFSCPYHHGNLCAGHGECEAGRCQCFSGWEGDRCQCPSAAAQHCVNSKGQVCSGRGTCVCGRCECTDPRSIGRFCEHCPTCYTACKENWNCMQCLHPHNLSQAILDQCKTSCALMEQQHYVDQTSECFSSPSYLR
Chain of αvβ1 integrin (purified) (P06756 31-992, chain 1 of 2): as the sequence (P06756 31-992, chain 1 of 2) above
Chain of αvβ1 integrin (purified) (P05556 21-728, chain 2 of 2): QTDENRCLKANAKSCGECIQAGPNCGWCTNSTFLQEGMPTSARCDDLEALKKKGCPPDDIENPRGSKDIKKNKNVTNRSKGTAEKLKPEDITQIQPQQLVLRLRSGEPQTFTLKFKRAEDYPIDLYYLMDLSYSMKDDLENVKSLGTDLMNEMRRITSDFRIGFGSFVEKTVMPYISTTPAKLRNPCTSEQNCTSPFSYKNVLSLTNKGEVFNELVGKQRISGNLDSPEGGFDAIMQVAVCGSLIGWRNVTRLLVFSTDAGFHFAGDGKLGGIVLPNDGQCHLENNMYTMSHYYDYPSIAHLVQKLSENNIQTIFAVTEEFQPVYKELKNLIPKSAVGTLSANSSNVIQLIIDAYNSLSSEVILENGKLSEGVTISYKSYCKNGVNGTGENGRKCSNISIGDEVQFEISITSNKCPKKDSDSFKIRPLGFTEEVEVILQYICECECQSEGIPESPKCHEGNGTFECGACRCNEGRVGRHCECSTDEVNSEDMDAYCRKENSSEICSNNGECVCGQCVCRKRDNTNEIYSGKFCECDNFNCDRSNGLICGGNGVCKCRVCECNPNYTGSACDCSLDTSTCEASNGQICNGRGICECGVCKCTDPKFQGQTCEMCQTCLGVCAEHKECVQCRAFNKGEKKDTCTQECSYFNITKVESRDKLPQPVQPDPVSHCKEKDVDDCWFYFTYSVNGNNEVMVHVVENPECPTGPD
T1 sequence (P06756 31-992, chain 1 of 2): as the sequence (P06756 31-992, chain 1 of 2) above
T1 sequence (P18564 22-707, chain 2 of 2): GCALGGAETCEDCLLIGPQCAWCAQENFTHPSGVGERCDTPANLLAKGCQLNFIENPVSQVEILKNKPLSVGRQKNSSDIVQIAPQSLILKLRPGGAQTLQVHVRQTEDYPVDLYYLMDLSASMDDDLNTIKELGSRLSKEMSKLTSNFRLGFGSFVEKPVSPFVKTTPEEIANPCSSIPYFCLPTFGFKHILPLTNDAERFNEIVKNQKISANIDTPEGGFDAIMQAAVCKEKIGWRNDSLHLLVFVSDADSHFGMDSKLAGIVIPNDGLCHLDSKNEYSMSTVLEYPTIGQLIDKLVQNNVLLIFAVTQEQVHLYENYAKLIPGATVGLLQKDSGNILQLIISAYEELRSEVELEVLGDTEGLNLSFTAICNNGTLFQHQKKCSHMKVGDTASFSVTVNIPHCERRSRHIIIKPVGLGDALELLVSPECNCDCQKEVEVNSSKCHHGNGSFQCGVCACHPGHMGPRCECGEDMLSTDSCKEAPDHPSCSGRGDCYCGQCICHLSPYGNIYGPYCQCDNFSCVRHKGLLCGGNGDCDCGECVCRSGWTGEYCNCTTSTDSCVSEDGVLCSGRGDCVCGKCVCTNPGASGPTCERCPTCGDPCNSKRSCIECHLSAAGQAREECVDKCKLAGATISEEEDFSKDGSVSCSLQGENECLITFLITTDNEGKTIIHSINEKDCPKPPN

B1: FB-…(FB) (peptide)
peptide: XGDLTYLKX
modifications: N-terminal fluorobenzoyl (FB); fluorobenzoyl (FB) on the side chain of the C-terminal lysine
notes: N-fluorobenzoylated variant of ST1-62
B1 was tested, and the IC50 (αvβ6 integrin (purified) [1]) was 21.9 nM.

B2: Me-…(FB) (peptide)
peptide: XGDLTYLKX
modifications: N-terminal methyl (Me); fluorobenzoyl (FB) on the side chain of the C-terminal lysine
notes: N-methylated variant of ST1-62
Work on B2 yielded an IC50 (αvβ6 integrin (purified) [1]) of 500 nM.

B3: ST1-61, …(FB) (peptide)
peptide: H-RGDLRELAK(Benzoyl(4-F))-NH2
SMILES: CC(C)C[C@H](NC(=O)[C@H](CCC(=O)O)NC(=O)[C@H](CCCNC(=N)N)NC(=O)[C@H](CC(C)C)NC(=O)[C@H](CC(=O)O)NC(=O)CNC(=O)[C@@H](N)CCCNC(=N)N)C(=O)N[C@@H](C)C(=O)N[C@@H](CCCCNC(=O)c1ccc(F)cc1)C(N)=O
notes: free N-terminus; also called Peptide 5
For B3, the IC50 (αvβ1 integrin (purified)) was 2300 nM, the IC50 (αvβ3 integrin (purified)) was 300 nM and the IC50 (αvβ8 integrin (purified)) was 2600 nM. For the same binder, the IC50 (αvβ6 integrin (purified) [2]) was 1.1 nM.

B4: FB-…(FB)-PEG28 (peptide)
peptide: XGDLTYLKXX
modifications: N-terminal fluorobenzoyl (FB); fluorobenzoyl (FB) on the side chain of the C-terminal lysine; PEG28 attached to the C-terminal lysine
notes: also called ST1-92
B4 was tested, and the IC50 (αvβ6 integrin (purified) [1]) was 17.6 nM.

H-RGDLADLRK(Benzoyl(4-F))-NH2 (free N-terminus; also called Peptide 3) [ST1-60, …(FB)] gave an IC50 (αvβ1 integrin (purified)) of 600 nM, an IC50 (αvβ3 integrin (purified)) of 500 nM and an IC50 (αvβ8 integrin (purified)) of 160 nM. It also gave an IC50 (αvβ6 integrin (purified) [2]) of 4.7 nM.

B5: FB-…(Ac) (peptide)
peptide: XGDLTYLKX
modifications: N-terminal fluorobenzoyl (FB); acetyl (Ac) on the side chain of the C-terminal lysine
notes: as for B1
B5 showed an IC50 (αvβ6 integrin (purified) [1]) of 4.3 nM.

H-VGDLTYLKK(4‑fluorobenzoyl)-NH2 (free N-terminus; also called Peptide 1) [ST1-62, …(FB)] gave an IC50 (αvβ8 integrin (purified)) of 5300 nM and an IC50 (αvβ6 integrin (purified) [2]) of 11 nM.

B6: Ac-…(FB) (peptide)
peptide: XGDLTYLKX
modifications: N-terminal acetyl (Ac); fluorobenzoyl (FB) on the side chain of the C-terminal lysine
notes: N-acetylated variant of ST1-62
With B6 the IC50 (αvβ6 integrin (purified) [1]) was 1600 nM.

B7: FB-…(Ac)-PEG28 (peptide)
peptide: XGDLTYLKXX
modifications: N-terminal fluorobenzoyl (FB); acetyl (Ac) on the side chain of the C-terminal lysine; PEG28 attached to the C-terminal lysine
notes: N-fluorobenzoylated, C-PEGylated variant of ST1-62
In the case of B7, the IC50 (αvβ6 integrin (purified) [1]) is reported as 15.5 nM.

B8: ST1-59, …(FB) (peptide)
peptide: H-RGDLMKLAK(Benzoyl(4-F))-NH2
SMILES: CSCC[C@H](NC(=O)[C@H](CC(C)C)NC(=O)[C@H](CC(=O)O)NC(=O)CNC(=O)[C@@H](N)CCCNC(=N)N)C(=O)N[C@@H](CCCCN)C(=O)N[C@@H](CC(C)C)C(=O)N[C@@H](C)C(=O)N[C@@H](CCCCNC(=O)c1ccc(F)cc1)C(N)=O
notes: free N-terminus; also called Peptide 2
B8 showed an IC50 (αvβ1 integrin (purified)) of 900 nM, an IC50 (αvβ3 integrin (purified)) of 2200 nM and an IC50 (αvβ8 integrin (purified)) of 2590 nM. The IC50 (αvβ6 integrin (purified) [2]) was 2.7 nM.
